Experimental data as given in the supplement of paper PMC10567573.
± gives the standard deviation.

Experiment: protein stability index of a GFP-peptide fusion (GPS, HEK-293T) (PSI 1-6); higher = more stable
Conditions: c terminus: a fixed tail appended
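Further: 24-mer peptide tiles fused after GFP, lentivirally expressed, FACS-sorted into six equal bins by GFP/DsRed ratio, decoded by Illumina sequencing, PSI is the read-weighted mean bin number.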

| Sequence | protein stability index (treatment: DMSO) | protein stability index (treatment: MLN4924 1 uM, 8 h) |
| --- | --- | --- |
| GVSANASKAWHQKSHFQNSREWSG [PBXIP1] | 3.22 ± 0.33 | 3.23 ± 0.3 |
| EAEADEEADPPASDLPTPQAIEPQ [SNX8] | 5.62 ± 0.17 | 5.63 ± 0.26 |
| KRESPGVGGGSGDEASAATPPSSR [ZBTB22] | 5.53 ± 0.23 | 5.451 ± 0.044 |
| HVGDFARDLAARWKKLVLVDRNTR [ELOA2] | 2.39 ± 0.29 | 2.86 ± 0.34 |
| FVSRYKLMRHMATHSPQKSHQCAH [PLAGL1] | 2.7 ± 0.37 | 2.55 ± 0.38 |
| ANAVISVSGINHDVTSGDHGDYFR [CPN1] | 3.58 ± 0.13 | 3.48 ± 0.31 |
| RAAYQQVIQPALPGQPLPGASVRG [TRAF3IP2] | 4.36 ± 0.35 | 4.18 ± 0.32 |
| DIDGDVLVFLELAQFHCAYQLADW [RHOBTB2] | 2.76 ± 0.47 | 3.23 ± 0.62 |
| VETLLRHGAHINLQSLKFQGGHGP [RIPK4] | 2.63 ± 0.39 | 3.11 ± 0.24 |
| EHPGGEEVLREQAGGDATENFEDV [CYB5A] | 5.47 ± 0.2 | 5.54 ± 0.24 |
| FSGQIRLNEDTIQDVVQAADLLLL [GAN] | 2.27 ± 0.24 | 2.3 ± 0.43 |
| FIAGLCVFIISTLAIDFIDEGRLL [SOAT2] | 2.81 ± 0.6 | 3.01 ± 0.33 |
| LLVGGLPPGPDRLPSNLVQYYDDE [KLHL14] | 4.17 ± 0.25 | 4.04 ± 0.087 |
| RQTSTKAVQHFYNIKLEGKVPMHK [ESRRG] | 3.32 ± 0.11 | 3.5 ± 0.26 |
| YLDLPGSRQGSAEALRALQEGLWL [PKD2L1] | 2.71 ± 0.27 | 2.64 ± 0.34 |
| GRCIHAGCDRIIGSKKKFDKCMVC [ADAMTS4] | 3.66 ± 0.41 | 3.56 ± 0.15 |
| KTLALARTMDIPRSVQNFRFFASS [ALDH8A1] | 2.58 ± 0.26 | 2.6 ± 0.3 |
| LLLCGTISLRVYRKVLQAVHRGDG [RTN2] | 2.66 ± 0.37 | 2.36 ± 0.63 |
| VVGTPCYISPELCEGKPYNQKSDI [NEK8] | 3.29 ± 0.38 | 3.49 ± 0.56 |
| FRIILGDFDYNAIDNANRILGPAY [PKD2L1] | 2.74 ± 0.55 | 2.62 ± 0.55 |

| Sequence | protein stability index (treatment: DMSO) | protein stability index (treatment: MLN4924 1 uM, 8 h) |
| --- | --- | --- |
| SLAEVRVGYQSQNISCFFRLVDRD [MYORG] | 2.42 ± 0.24 | 2.45 ± 0.26 |
| GRCTVRDFIHRHCQDQNVPVENFF [SDE2] | 2.51 ± 0.4 | 2.72 ± 0.049 |
| TNIRLPNVPSSSLPAQPNRKPGMS [CHMP4C] | 4.66 ± 0.28 | 4.51 ± 0.45 |
| LFSELAEDKENYKKFYEAFSKNLK [HSP90AB1] | 2.83 ± 0.23 | 3.62 ± 0.17 |
| TPDTRHPCSLGSSLVADYSDSESE [YJU2B] | 5.39 ± 0.23 | 5.59 ± 0.25 |
| GGRAYQALHCPTGTEYTCKVYPVQ [TRIB3] | 2.73 ± 0.3 | 2.76 ± 0.33 |
| SEEQVSKNLFGPPLESAFDHEDFT [FCHO1] | 5.22 ± 0.4 | 5.26 ± 0.21 |
| SHSKAPSGSQMSHNAVTSHQRPGW [NCF4] | 3.88 ± 0.23 | 4.05 ± 0.22 |
| EGAQLKKVEQNSRPVSCSGRDALL [WASL] | 4.53 ± 0.39 | 4.72 ± 0.48 |
| DIGKGAFSVVRRCVKLCTGHEYAA [CAMK2B] | 1.93 ± 0.2 | 2.06 ± 0.37 |
| GEEALSLQALDPQQCVDKESSLGS [SLC22A15] | 5.36 ± 0.33 | 5.36 ± 0.32 |
| QRLPRSAPPGSLVTKVTAVDADAG [PCDHGC5] | 4.76 ± 0.21 | 4.82 ± 0.3 |
| GSYSSTMNGHQNGLDSPPLYPSAP [ESRRG] | 4.07 ± 0.23 | 4.3 ± 0.14 |
| PSGAGKTVVGVPSGKVSSSSSSLG [ZC2HC1A] | 4.47 ± 0.35 | 4.65 ± 0.14 |
| EKEELLQLSIERGKVLQNKQAEIC [CCDC89] | 4.44 ± 0.27 | 4.68 ± 0.17 |
| VSQLYPESIVPIPSSNEEIRLVDD [INTS4] | 4.92 ± 0.18 | 4.88 ± 0.081 |
| GTLCIGAAAFSQCEEWSFFHAYYY [KCNK9] | 2.58 ± 0.53 | 2.9 ± 0.66 |
| REENEKLRLENSSLFSQALKDEEA [CCDC89] | 5.41 ± 0.46 | 5.41 ± 0.37 |
| LGCNRQSWCLKRYDLEYWAFHDGQ [TRIM14] | 2.5 ± 0.34 | 2.34 ± 0.38 |
| MESSKPGPVQVVLVQKDQHSFELD [ATL3] | 4.35 ± 0.19 | 4.04 ± 0.33 |
